In PMC7525497, “Antibodies from Sierra Leonean and Nigerian Lassa fever survivors cross-react with recombinant proteins representing Lassa viruses of divergent lineages” (Scientific Reports, 2020):

Molecular target: the molecule itself
Test: SDS-PAGE and western blotting

B1: LASV Zinc protein (Z), lineage IV (natural protein)
chain: MGNKQAKAPESKDSPRASLIPDATHLGPQFCKSCWFENKGLVECNNHYLCLNCLTLLLSVSNRCPICKMPLPTKLRPSAAPTAPPTGAADSIRPPPYSP
notes: also called Z protein; lineage IV Z
B1: binds.
